{"source": "the DeepSol protein solubility set"}
{"assay": "soluble on expression in E. coli; label from the status in PepcDB or PDB records"}
{"sequence": "MSLKRYSGFLIDLDGTMYRGSEVITEAVAFVKQLEKQSASYLFVTNNSTKSPETVATLLKSMDVPATKEHVFTSSMAMASYLTRTKEFVRAFVIGEEGLLESLKESGMMVSEDEQPDYVVMGLDRAISYEKLAKAATYVRQGAKFFITNGDAALPTEKGLMPGNGSLAAVVATTTGVKPFVVGKPSPIIIEEALKRLGTTKEETLLIGDNYDTDILAGIHAGIDTLLVHTGVTTKEALKQKEAQPTYTCESLADWQRSIEEEGHHHHHH", "soluble on expression in E. coli": "soluble"}
{"sequence": "MSLKHLGQTRSALHGSHAVITPETFVRTALAEWPGSAIVLHIAPVVGLGARFVQFTAEMPAGAQATESVYQRFAFVLSGEVDVAVGGETRTLREYDYVYLPAGEKHMLTAKTDARVSVFEKPYQTVEGVQAPGVYWGNERENPGYPFEGDDHLIARKLLPDEPAFDFMVSTMSFAPGASLPYAEVHYMEHGLLMLEGEGLYKLEENYYPVTAGDIIWMGAHCPQWYGALGRNWSKYLLYKDMNRHPLEGGSHHHHHH", "soluble on expression in E. coli": "soluble"}
{"sequence": "MTIFNKIDYNYYKLINYPIMMVHDEWLGDLTGVNQVSFRRLRETSSTRNQLNKILRQEIHDKISGVELSDINKEGFLYQSIGKIRLLALSSALFDIQCPDYIFSRLYRETLIREIGYQNVKQLSFYWQGGQCKPEYGEERFCAELIKYGAGNLEWLFADNPLWTIVKYLLPKSGEIKPTHINDLFLNRLNKILLPYETL", "soluble on expression in E. coli": "not soluble"}
{"sequence": "MGGSHHHHHHGDDDDKMTKTFKTLDDFLGTHFIYTYDNGWEYEWYAKNDHTVDYRIHGGMVAGRWVTDQKADIVMLTEGIYKISWTEPTGTDVALDFMPNEKKLHGTIFFPKWVEEHPEITVTYQNEHIDLMEQSREKYATYPKLVVPEFANITYMGDAGQNNEDVISEAPYKEMPNDIRNGKYFDQNYHRLNK", "soluble on expression in E. coli": "soluble"}
{"sequence": "MMAYSDTTMMSDDIDWLRSHRGVCKVDLYNPEGQQDQDRKVICFVDVSTLNVEDKDYKDAASSSSEGNLNLGSLEEKEIIVIKDTEKKDQSKTEGSVCLFKQAPSDPVSVLNWLLSDLQKYALGFQHALSPSTSTCKHKVGDTEGEYHRASSENCYSVYADQVNIDYLMNRPQNLRLEMTAAKNTNNNQSPSAPPAKPPSTQRAVISPDGECSIDDLSFYVNRLSSLVIQMAHKEIKEKLEGKSKCLHHSICPSPGNKERISPRTPASKIASEMAYEAVELTAAEMRGTGEESREGGQKSFLYSELSNKSKSGDKQMSQRESKEFADSISKGLMVYANQVASDMMVSLMKTLKVHSSGKPIPASVVLKRVLLRHTKEIVSDLIDSCMKNLHNITGVLMTDSDFVSAVKRNLFNQWKQNATDIMEAMLKRLVSALIGEEKETKSQSLSYASLKAGSHDPKCRNQSLEFSTMKAEMKERDKGKMKSDPCKSLTSAEKVGEHILKEGLTIWNQKQGNSCKVATKACSNKDEKGEKINASTDSLAKDLIVSALKLIQYHLTQQTKGKDTCEEDCPGSTMGYMAQSTQYEKCGGGQSAKALSVKQLESHRAPGPSTCQKENQHLDSQKMDMSNIVLMLIQKLLNENPFKCEDPCEGENKCSEPRASKAASMSNRSDKAEEQCQEHQELDCTSGMKQANGQFIDKLVESVMKLCLIMAKYSNDGAALAELEEQAASANKPNFRGTRCIHSGAMPQNYQDSLGHEVIVNNQCSTNSLQKQLQAVLQWIAASQFNVPMLYFMGDKDGQLEKLPQVSAKAAEKGYSVGGLLQEVMKFAKERQPDEAVGKVARKQLLDWLLANL", "soluble on expression in E. coli": "not soluble"}
{"sequence": "MTNWLIAYQGEPGAYSEIAALRFGEPLPCESFDDVFSAVTEQKADYAVIPIENSLGGSIHQNYDLLLRRPVVILAETFVKVEHCLLGLPGASVETATKAMSHPQALVQCHNFFATHPQIRAEAAYDTAGSAKMVAESRDKSALAIASKRAGELYGLDILKENLADEEWNITRFFCIAHENN", "soluble on expression in E. coli": "not soluble"}
{"sequence": "MTERLKVMTIFGTRPEAIKMAPLVLELQKHPEKIESIVTVTAQHRQMLDQVLSIFGITPDFDLNIMKDRQTLIDITTRGLEGLDKVMKEAKPDIVLVHGDTTTTFIASLAAFYNQIPVGHVEAGLRTWDKYSPYPEEMNRQLTGVMADLHFSPTAKSATNLQKENKDESRIFITGNTAIDALKTTVKETYSHPVLEKLGNNRLVLMTAHRRENLGEPMRNMFRAIKRLVDKHEDVQVVYPVHMNPVVRETANDILGDYGRIHLIEPLDVIDFHNVAARSYLMLTDSGGVQEEAPSLGVPVLVLRDTTERPEGIEAGTLKLAGTDEETIFSLADELLSDKEAHDKMSKASNPYGDGRASERIVEAILKHFNK", "soluble on expression in E. coli": "not soluble"}
{"sequence": "MGSDKIHHHHHHMQIYASLLLILKLERKLCIFSGKVMELYEMYYFAFNKSSEPMLFADPNTGRIFDVNQAFLALLGYAKDEVMVKTTFDLGLLPEEDSQPRQPLWVKTKNGSLKSGMVSATDLVHKEKMMRLMVFQEQSENGNFTLEEMLTQTISLISKISEFRDPYTSGHQKRTQKLACAIASEMKLSGEAIHHVSMAAAIHDVGKIYISSDILNKPGKLTQLEYQMLQTHVEVGYEIIKDFQLPWQIPEIISQHHERLDGSGYPKGLTASQIFLESKILAVADVVDAMNSHRPYRPALGIEAALEEICNYKGEKYDSEVVEHCVRLFKEKQAMPNRFKI", "soluble on expression in E. coli": "not soluble"}
{"sequence": "MNTYVAEIGEIVRSQRRDEEYIEDITERLSRVSKELLGQRTWIRWFPYLKSIASTLYYTSTVVLGNQTLGEEYVHLFESNGLERTVPSIPSRISFVLLHSAFPLISNYLIQKAESTLTHPSTESFLGIPIRKNQKARQSFLDVFFWLRTKLFPQLQRAHIALFYITGAYYSIARRFTGIRFLSASAHSDIPALKVYRFLGYITLIQLAVSIGISLYSFLEQEKFNNKLKKEKKENNGGSDRNLDENSLFHPTFQCSICLENKNPSALFCGHLFCWTCIQEHAVAATSSASTSSARCPQCRLEFQPRDPNNLRLLSTSTHPTIYFTGIQPTGIPHLGNFFGSIEPWTELQNSVDKNILMMLSVVDQHAISLGPLPANELRQNTHQMTASLIACGVDPNRTLLFRQSDVPQIAQISWILGSLQTTSKLARLPQYKEKKERFKKGDIPVGLLTYPLLQAADVLTFKATTVPVGEDQSQHLNLLGGLAYAFNKTYETEIFPIPKQLTRESHARIRSLREPEKKMSKSSGGPRSRIEITDSRSTIIEKCQKAQSDNAGKVTYDKENRLAVSNLLDLYSAVTKTQTSEIDFSNWTTLDLKMNLAEAVDKRLAPIRQKFEELQNTGEVDKVLTENGEKAREIAEKNLEEIRRTIGFL", "soluble on expression in E. coli": "not soluble"}
{"sequence": "MDGNAPEPRYWEKMRLVAEVLKAVEGPIYIATHVDPDGDAIGSSLGLYRALKALGKEAYWVADPPRFLRFLPKEEEYSDPVEKLPPGATLVALDSAEPSRVVGVPVEGFVINIDHHGTNPRFGHLHVVDPSKAATAQMVKDLIDLLGVEWTAEIATPVLTGILTDTGNFRFANTTPEVLRVAAELLGYGVKLAELTDRLQFRPPSYFRLMGQVLSTVAFHFGGLLVTAHLPEDAGAEEDSDDFVGLIRYVEGSVVSVFLRKREEGVKVSIRSRGGVSAQNIALKLGGGGHVPAAGATLKGLDLDQAYERVLEAVREELTRAGYL", "soluble on expression in E. coli": "soluble"}
{"sequence": "MLGTISMRFFATKVVAPRASVAASTPQVPLGMNINPYAMFIKENFKANTSDMKRTDLMKELSGKWKALSISEKDKYTELSKNYNAQKLDDFMKLSTEEQKKLVDSAKEKKAERASRRHAKERREKRKQSGRPSVPPSAYALFIKEKLSGAGMESKEKMKEAVAQWKAFTDSQKKKYTDEAKKLKDEYHVVLQKWEAEQKENADQ", "soluble on expression in E. coli": "not soluble"}
{"sequence": "MSLTKEAIISYLSSDLFKGVGKKTAQNIVNTLGDNAINDILDDHSVLEKVSGLSKKKQKQIAEQISANQESEKIMIRLHDLGFGPKLSMAIYQFYLGDTLTILDRNPYQLIYDIKGIGFNKADQLARNIGIAYNDNERLKAALLYTLEEECIKQGHTYLPINVVIDLTVDVLNYQDEEVIEPEKLDEMLQYLNEEKRLIIDNEQVAIPSLYYSEIKSVQNLFRIKTHTNKLTEIEQSDLQMHIGEIEDANQVNYAASQKEALQTAINSKVMLLTGGPGTGKTTVIKGIVELYAEIHGLSLDYDDYVNDDYPVVLAAPTGRASKRLQESTGLEAMTIHRLIGWNQDTKPEDILENEINARLIIIDEMSMVDTWLFHQFLSAVPLDAQLIFVGDEDQLPSVGPGQVFKDLIESKAIPRVNLTEVYRQQDGSSIIELAHRMKLGQKIDITQRFHDRSFINCQANQIPTVVEKVVTSAVNKGYTMADIQVLAPMYKGNAGIKRLNQVLQDILNPKKKDTREIEFGDVVFRKGDKVLQLVNRPNDNIFNGDIGVIVGIFWAKENALNKDVLVVDFEGNEITFTKQDMMELTHAYCTSIHKSQGSEFPIVIMPIVKQYFRMLQRPILYTGLTRAKTSLVLLGDPEAFDIGLKTNGQARLTQLCTLLKNYFNSEGHHHHHH", "soluble on expression in E. coli": "soluble"}
{"sequence": "MGSDKIHHHHHHLSKLYPHAKNRQDSGMDRNPTLAQWQLAQELRRLRGDRKFSEVVKAARTTGGSLARWETPGDRGAVPGPAALERLLQIYGAEDQLERLLSLRKEARQPDRWQPYGLERSYRTYANIESQATSIEYYQSQIVPGIAQTEAYARAVIEATLHPSSDVDREVQARMERQRVLSKPERPDLWLIIAEGALRQQVGTSQVMADQIDRLIELSQEPGITLQVLPFTAGAHVAMRLAGFVIMSIAQHGITTVYIEGQNSGMFFTDSEDLAEYGMIFNRLRAACLDEGRPTRTLLERIARDHRRGEG", "soluble on expression in E. coli": "not soluble"}
{"sequence": "MGSDKIHHHHHHMSEPLRIIHGAFGRVALLLLDRTMAVHAHRVCHVVFKIGGVDILFGVRELEHYLSDDNVLLVNAWEPHFYNHNRDAPSTVLLALYLEPQWLRKVDTRFSCSAHPKFFSQPILALGSKLAGLRADLLDLLTGRESTGSRVVEDLIVRTIIELACVGTRWKELLECQLMGSLAYDARIRQSLDEMKSRGGVALDFDEIASSVGLSRPHFFHLFRKQIGMTPATFGSMLRMEASIDSLAATDTAIHDIARHLGFDSPGNFTRFFLCQQGVTPSQYRRKVEFTTLTCS", "soluble on expression in E. coli": "not soluble"}
{"sequence": "MALDANDLLPPEKAFVPELAVADDGVNVRFRIADGYYMYQAKIVGKTNPADLLGQPSFSKGEEKEDEFFGRQTVYHHEAQVAFPYAKAVGEPYKLVLTYQGSAEAGVCYPPVDTEFDIFGNGTYHPQT", "soluble on expression in E. coli": "soluble"}
{"sequence": "LINILEQAKQKNTAQGSESTTNKIIGYTTTANVNVDNQNIFSVSKLNNEQFQRKIIVNATEETLDQSQTLQSNESIVLPMPGKYKSTDKNK", "soluble on expression in E. coli": "soluble"}
{"sequence": "MIRLTRLDGDVFFVNPDLIEAIEETPDTHIVLSNGRRYLVIEKTDAIVARIISFKSSVMKRALGGHGRKYLRRKMEGSYLPRCPLKPGHNTDLEHHHHHH", "soluble on expression in E. coli": "soluble"}
{"sequence": "MKLILNTPGLYLCKRGECFQIQSENEKREIAATKVDQIMITTHAALTTDAIELALEYNIDIIFLKNTGQPMGRVWHSKLGSISTIRRKQLFLQDSPLGLQLVKEWILEKMDNQIRLLKKLEVNRRDDEKRAIIRDTIEKIEKQKANIMSINNKETVNNVRNMLLGYEGTAGRVYFETLGKLIPEKYAFEARSRNPAKDPFNCMLNYSYGILYSSVEKACIIAGLDPYIGIMHTDNYNKKALVYDMVEMYRGYMDEIVFRLFSTKKVQDDFFDKIEDGYYLNKEGKQLLISEYNKELEVKMNYRGRRIEFANIIQYDCHQIANRILKEDIPC", "soluble on expression in E. coli": "soluble"}
{"sequence": "MGSDKIHHHHHHMEVAEGEFKPAFPIKPAQQLVFVHIPKCGGTSMHQFLANAKKVQPEPELSTILAGYCEPALHKHSKAAVIRDLVGPALWQTIFTFSVVRNPWDLMLSSYRWWLQKAGRFSSLRAQADEVADLGSFEGFLKSDFGGNRINECEGDILSWLSDENGQEIVDFVGRLEDIEQALQNVFERAGLAGYSEFPRLNSTVRGGYQDYYNAETKRLIQTRFQATIDRFEYQF", "soluble on expression in E. coli": "not soluble"}
